Patent publication US6869925 (Amgen, dated 2005)

Key:
[1] = target: SLPI binding sites on HuT78 cells (human T cell line) (human); test: competition with 125I-SLPI, intact HuT78 cells, cold SLPI at 0.078 nM
[2] = target: SLPI binding sites on HuT78 cells (human T cell line) (human); test: 125I-SLPI saturation binding, intact HuT78 cells, *SLPI at 10,240 pM
[3] = target: SLPI binding sites on U937 cells (human monocyte cell line; intact cells, PMA-induced cells or plasma membranes) (human); test: competition with 125I-SLPI, intact U937 cells, competitor at 0.80 nM
[4] = target: SLPI binding sites on U937 cells (human monocyte cell line; intact cells, PMA-induced cells or plasma membranes) (human); test: competition with 125I-SLPI, intact U937 cells, competitor at 0.25 nM
[5] = target: SLPI binding sites on U937 cells (human monocyte cell line; intact cells, PMA-induced cells or plasma membranes) (human); test: competition with 125I-SLPI, U937 plasma membranes, competitor at 83.9 nM
[6] = target: SLPI binding sites on U937 cells (human monocyte cell line; intact cells, PMA-induced cells or plasma membranes) (human); test: Scatchard plot of 125I-SLPI saturation binding, intact U937 cells
[7] = target: SLPI binding sites on HuT78 cells (human T cell line) (human); test: 125I-SLPI saturation binding, intact HuT78 cells, *SLPI at 1280 pM
[8] = target: SLPI binding sites on HuT78 cells (human T cell line) (human); test: 125I-SLPI saturation binding, intact HuT78 cells, *SLPI at 40 pM
[9] = target: SLPI binding sites on HuT78 cells (human T cell line) (human); test: Scatchard plot of 125I-SLPI saturation binding, intact HuT78 cells
[10] = target: SLPI binding sites on U937 cells (human monocyte cell line; intact cells, PMA-induced cells or plasma membranes) (human); test: competition with 125I-SLPI, intact U937 cells, competitor at 0.078 nM
[11] = target: SLPI binding sites on HuT78 cells (human T cell line) (human); test: competition with 125I-SLPI, intact HuT78 cells, cold SLPI at 0.25 nM
[12] = target: SLPI binding sites on U937 cells (human monocyte cell line; intact cells, PMA-induced cells or plasma membranes) (human); test: Scatchard plot of 125I-SLPI saturation binding, non-induced U937 cells
[13] = target: SLPI binding sites on U937 cells (human monocyte cell line; intact cells, PMA-induced cells or plasma membranes) (human); test: 125I-SLPI saturation binding, intact U937 cells, *SLPI at 160 pM
[14] = target: SLPI binding sites on U937 cells (human monocyte cell line; intact cells, PMA-induced cells or plasma membranes) (human); test: 125I-SLPI saturation binding, U937 cells plus PMA, *SLPI at 10,240 pM
[15] = target: SLPI binding sites on U937 cells (human monocyte cell line; intact cells, PMA-induced cells or plasma membranes) (human); test: 125I-SLPI saturation binding, U937 cells plus PMA, *SLPI at 640 pM
[16] = target: SLPI binding sites on U937 cells (human monocyte cell line; intact cells, PMA-induced cells or plasma membranes) (human); test: 125I-SLPI saturation binding, intact U937 cells, *SLPI at 80 pM
[17] = target: SLPI binding sites on elutriated human peripheral blood monocytes (human); test: 125I-SLPI binding to intact monocytes
[18] = target: SLPI binding sites on U937 cells (human monocyte cell line; intact cells, PMA-induced cells or plasma membranes) (human); test: competition with 125I-SLPI, U937 plasma membranes, competitor at 2.56 nM
[19] = target: SLPI binding sites on HuT78 cells (human T cell line) (human); test: 125I-SLPI saturation binding, intact HuT78 cells, *SLPI at 80 pM
[20] = target: SLPI binding sites on U937 cells (human monocyte cell line; intact cells, PMA-induced cells or plasma membranes) (human); test: 125I-SLPI saturation binding, U937 cells minus PMA, *SLPI at 320 pM
[21] = target: SLPI binding sites on U937 cells (human monocyte cell line; intact cells, PMA-induced cells or plasma membranes) (human); test: competition with 125I-SLPI, intact U937 cells, cold SLPI at 2750 nM
[22] = target: SLPI binding sites on U937 cells (human monocyte cell line; intact cells, PMA-induced cells or plasma membranes) (human); test: competition with 125I-SLPI, intact U937 cells, cold SLPI at 0.25 nM
[23] = target: SLPI binding sites on U937 cells (human monocyte cell line; intact cells, PMA-induced cells or plasma membranes) (human); test: competition with 125I-SLPI, intact U937 cells, competitor at 8.2 nM
[24] = target: SLPI binding sites on U937 cells (human monocyte cell line; intact cells, PMA-induced cells or plasma membranes) (human); test: competition with 125I-SLPI, intact U937 cells, cold SLPI at 8.2 nM
[25] = target: SLPI binding sites on U937 cells (human monocyte cell line; intact cells, PMA-induced cells or plasma membranes) (human); test: competition with 125I-SLPI, intact U937 cells, competitor at 0.024 nM
[26] = target: SLPI binding sites on U937 cells (human monocyte cell line; intact cells, PMA-induced cells or plasma membranes) (human); test: competition with 125I-SLPI, intact U937 cells, cold SLPI at 0.024 nM

Sequence of serine leukocyte protease inhibitor (SLPI) (P03973 26-132): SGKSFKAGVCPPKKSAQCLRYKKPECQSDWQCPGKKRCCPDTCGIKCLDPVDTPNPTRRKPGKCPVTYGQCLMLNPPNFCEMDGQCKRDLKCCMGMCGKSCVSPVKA

“serine leukocyte protease inhibitor (SLPI) (from UniProt P03973 26-132)” gave a % *SLPI BOUND [1] of 90%, a bound pM [2] of 32.7 pM and a bound per free [2] of 0.0032. The sites bound per cell (sites per cell) [2] was 1970, the specific cpm [2] was 1300 cpm and the % *SLPI BOUND [3] was 78%. The % *SLPI BOUND [4] was 106%, the CPM *SLPI BOUND [5] was 2070 cpm and the Kd [6] was 2 nM. The bound pM [7] was 7.6 pM, the bound per free [7] was 0.0059 and the sites bound per cell (sites per cell) [7] was 458. The specific cpm [7] was 303 cpm, the specific cpm [8] was 0 cpm and the Kd [9] was 2 nM. The % *SLPI BOUND [10] was 111%, the % *SLPI BOUND [11] was 69% and the Kd [12] was 1.1 nM. It also gave a bound *SLPI (pM) [13] of 32.9 pM, a bound per free [13] of 0.259 and a sites bound per cell (sites per cell) [13] of 1980. The specific cpm [13] was 1320 cpm, the bound pM [14] was 274 pM and the bound per free [14] was 0.028. It also gave a sites bound per cell (sites per cell) [14] of 16500, a specific cpm [14] of 2930 cpm and a bound pM [15] of 103 pM. For the same substance, the bound per free [15] was 0.192, the sites bound per cell (sites per cell) [15] was 6200 and the specific cpm [15] was 1100 cpm. The bound *SLPI (pM) [16] was 13.6 pM, the bound per free [16] was 0.205 and the sites bound per cell (sites per cell) [16] was 819. It also gave a specific cpm [16] of 543 cpm, a *SLPI concentration at saturation (micrograms/ml) [17] of 0.5 and a *SLPI concentration required for half-maximal binding [17] of 10 nM. It also gave a CPM *SLPI BOUND [18] of 11000 cpm, a bound pM [19] of 0.75 pM and a bound per free [19] of 0.0095. For the same substance, the sites bound per cell (sites per cell) [19] was 45, the specific cpm [19] was 30 cpm and the bound *SLPI (pM) [20] was 101 pM. For the same substance, the bound per free [20] was 0.461, the sites bound per cell (sites per cell) [20] was 6080 and the specific cpm [20] was 1080 cpm. It also gave a % *SLPI BOUND [21] of 0.5%, a % *SLPI BOUND [22] of 92% and a % *SLPI BOUND [23] of 22%. For the same substance, the % *SLPI BOUND [24] was 24%, the % *SLPI BOUND [25] was 111% and the % *SLPI BOUND [26] was 100%.
